T1: Oct6 DNA-binding domain (BD-Oct6) (Mus musculus (B6), UniProt P21952 317-416)
T1 sequence: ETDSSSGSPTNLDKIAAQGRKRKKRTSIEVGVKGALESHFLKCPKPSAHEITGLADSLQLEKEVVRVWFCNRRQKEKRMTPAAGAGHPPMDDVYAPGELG

T2: Brn2 DNA-binding domain (BD-Brn2) (Mus musculus (B6), UniProt P31360 336-435)
T2 sequence: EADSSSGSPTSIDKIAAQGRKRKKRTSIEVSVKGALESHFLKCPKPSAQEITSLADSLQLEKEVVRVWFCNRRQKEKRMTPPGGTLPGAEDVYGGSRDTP


Columns and labels:
Experiment in all cases: EMSA; 10% glycerol, 20 mM HEPES pH 7.8, 45 mM KCl, 10 mM NaCl, 1 mM EDTA, 1 mM DTT, 0.2 ug/uL BSA, 0.1% NP-40, 50 ng poly-dIdC; 20 ng each GST protein; room temperature 30 min (heterodimers 4 C); 6% PAGE 0.25x TBE
Details in all cases: protein: recombinant; tags: GST (N-terminal, pGEX-6P-1); label: 32P-dCTP fill-in of the 5' (dG)5 overhangs of both strands (Methods; control probes are given with GGG)
[1] = biological target: T1, Oct6 DNA-binding domain (BD-Oct6)
In short: (§1)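 DNA binding of transcription factor DNA-binding domains to candidate cis-elements was read from band radioactivity in the expected shift region. The GST-tagged domains came from E. coli BL21 via glutathione-sepharose; probes were annealed oligonucleotides labelled with 32P-dCTP. Each assay used 20 ng protein, 40,000–50,000 cpm probe and 50 ng poly-dIdC for 30 min at room temperature, followed by 6% polyacrylamide electrophoresis in 0.25×TBE at 4°C.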

[2] = biological target: T2, Brn2 DNA-binding domain (BD-Brn2)
In short: as §1

[3] = biological target: Pax6 DNA-binding domain (BD-Pax6) (Mus musculus (B6), UniProt P63015 190-289)
In short: as §1

Sequence of Pax6 DNA-binding domain (BD-Pax6) (P63015 190-289): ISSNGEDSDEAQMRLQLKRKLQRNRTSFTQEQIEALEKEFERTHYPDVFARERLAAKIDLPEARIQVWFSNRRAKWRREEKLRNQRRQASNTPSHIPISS

Row | Binder | binding result [1] | binding result [2] | binding result [3]
1 | 77 (dsDNA) DNA 1: GGGGGTATGTCTATTTGTTTTTTATTTTTTGAAGACTCCCCC DNA 2: GGGGGAGTCTTCAAAAAATAAAAAACAAATAGACATACCCCC | no binding | no binding | no binding
2 | 66 (dsDNA) DNA 1: GGGGGGGAACTCCCTTAAATTTGGTTTGTTTATGTGTCCCCC DNA 2: GGGGGACACATAAACAAACCAAATTTAAGGGAGTTCCCCCCC | binds | no binding | binds
3 | 68 (dsDNA) DNA 1: GGGGGTTTGTTTGTTTGTTTAAAGGATTTATTTATTTATCCCCC DNA 2: GGGGGATAAATAAATAAATCCTTTAAACAAACAAACAAACCCCC | binds | binds | binds
4 | 75 (dsDNA) DNA 1: GGGGGGCTCTGGGTATAATTAACAATAAAATGCACCCCC DNA 2: GGGGGTGCATTTTATTGTTAATTATACCCAGAGCCCCCC | binds | binds | binds
5 | 73 (dsDNA) DNA 1: GGGGGCTTGTCCTCAGCATCTATGGTAACACACAAATCCTGAAGCCCCC DNA 2: GGGGGCTTCAGGATTTGTGTGTTACCATAGATGCTGAGGACAAGCCCCC | no binding | no binding | no binding
6 | 65 (dsDNA) DNA 1: GGGGGGTACTTGGTGATAATTTCATTGTCCACATGCCCCCC DNA 2: GGGGGGCATGTGGACAATGAAATTATCACCAAGTACCCCCC | binds | binds | binds
7 | 74 (dsDNA) DNA 1: GGGGGGACTTTCTTGGCGGATTTGGTAACGACAAAGTTAGGATCCCCC DNA 2: GGGGGATCCTAACTTTGTCGTTACCAAATCCGCCAAGAAAGTCCCCCC | no binding | no binding | no binding
8 | 76 (dsDNA) DNA 1: GGGGGCAGGTATGATTGTCCATATTGCTAATAAACCCCCC DNA 2: GGGGGGTTTATTAGCAATATGGACAATCATACCTGCCCCC | binds | binds | binds
9 | 67 (dsDNA) DNA 1: GGGGGGCATATGCATTGTCTGTGTATTCTAAATGTATCCCCC DNA 2: GGGGGATACATTTAGAATACACAGACAATGCATATGCCCCCC | no binding | no binding | no binding
10 | 78 (dsDNA) DNA 1: GGGGGTCTTTTGATTTGTCCGATTTAGGTTTTAAACCCCC DNA 2: GGGGGTTTAAAACCTAAATCGGACAAATCAAAAGACCCCC | binds | no binding | no binding
11 | 69 (dsDNA) DNA 1: GGGGGACAAGTGATTTGTCCTTATCACATAGCTAGGAAAAGGGAATCCCCC DNA 2: GGGGGATTCCCTTTTCCTAGCTATGTGATAAGGACAAATCACTTGTCCCCC | binds | no binding | no binding
12 | 72 (dsDNA) DNA 1: GGGGGGTTTGTTTTTTAAGGAACTGTAATGAACAAATGTCAGGACCCCC DNA 2: GGGGGTCCTGACATTTGTTCATTACAGTTCCTTAAAAAACAAACCCCCC | binds | binds | binds
